{"source": "patent US20230348564A1", "about": "“ANTI-CANCER PROTEINS” (UNICHEM LABORATORIES LTD, priority 2020, published 2023)", "molecules": {"B1": {"name": "SEQ ID NO. 2: recombinant lectin; variant of the S. rolfsii lectin amino acid sequence (reported as Rec-2 in WO 2010/095143) (protein)", "chain": "TYKITVRVYQTNPDAFFHPVEKTVWKYANGGTWTITDDQHVLTMGGSGTSGTLRFHADNGESFTATFGVHNYKRWCDIVTNLAADETGMVINQQYYSQKNREEARERQLSNYQVKNAKGRNFQIVYTEAEGNDLHANLIIG", "modifications": "In vitro synthesis"}}, "key": {"Glioma (C6)": {"test_system": "Glioma (C6)", "assay": "cytotoxicity in Brain Tumor Cell lines by MTT assay", "type": "cell-based, Rat", "conditions": "72 h", "experimental": "The SEQ ID NO. […] Untreated cells were used as control. […] Cells were incubated for 3 h at 37° C."}, "PKC/Ca2+": {"test_system": "PKC/Ca2+", "assay": "SelectScreen Cell-based Pathway Profiling (GeneBLAzer bla reporter)", "design": "species or system Human", "experimental": "(§1) The mechanism of action of the recombinant lectin having the amino acid sequence of SEQ ID NO.2 is studied by determining its effect on the modulation of key signaling pathways involved in the pathogenesis of cancer. The study was performed using SelectScreen® Cell-based Pathway Profiling Services at Life Technologies, USA. Modulatory effect of Lectin having the amino acid sequence of SEQ ID NO. 2 on various cell signaling pathways was investigated in cell lines overexpressing specific markers using GeneBLAzer Beta-lactamase (bla) Reporter Technology and Tango platforms. The cell lines tested were MDA-MB-231 (Human Breast cancer), KB (Human Cervical cancer), PA-1 (Human ovarian cancer), PANC-1 (Human pancreatic cancer), HT-29 (Human colorectal cancer), T-24 (Human Bladder cancer)\n(§2) 10 mg of recombinant lectin having the amino acid sequence of SEQ ID NO.2 was dissolved in 200 μL of TBS buffer (25 mM, pH 8.0) to obtain stock solution of 50 mg/mL. The stock solutions were diluted in Serum Free Medium (STM) to achieve final concentrations in cells ranging from 0.00158 μg/mL-50 μg/mL. Cells (32 μL) were diluted in Assay Media to appropriate cell density and were added to the assay plate. Cells were incubated at 37° C./5% CO2 for 24 h. 40 nL of 1000×sample and 4 μL of assay medium was added to the cells in the assay plate and incubated for 30 minutes at 37° C./5% CO2 in a humidified incubator. Then, 4 μL of the 10×EC80 concentration of activator was added to all wells containing sample to bring the final assay volume to 40 μL. The assay plate was incubated for 16 hours at 37° C./5% CO2 in a humidified incubator. Further, 8 μL of the Substrate Loading Solution (LiveBLAzer™—FRET B/G) was added to the assay plate. The assay plate was incubated for 2 hours at room temperature, in the dark. The assay plate was read on a fluorescence plate reader (Tecan Safire2). Fluorescence emission values at 460 nm and 530 nm were obtained using a standard florescence plate reader and % modulation was determined.\n(§3) % Modulation=[(A−B)/A]*100\n(§4) Where, A=Fluorescence reading in Control (untreated cells) B=Fluorescence reading in TI treated cells"}, "PI3K/AKT/FOXO3": {"test_system": "PI3K/AKT/FOXO3", "assay": "SelectScreen Cell-based Pathway Profiling (GeneBLAzer bla reporter)", "design": "species or system Human", "conditions": "0.5 μg/mL-50 μg/mL", "experimental": "as §1, §2, §3, §4"}, "MAPK/EGFR/Ras/Raf": {"test_system": "MAPK/EGFR/Ras/Raf", "assay": "SelectScreen Cell-based Pathway Profiling (GeneBLAzer bla reporter)", "design": "species or system Human", "conditions": "0.158 μg/mL-50 μg/mL", "experimental": "as §1, §2, §3, §4"}, "IL-4/STAT6": {"test_system": "IL-4/STAT6", "assay": "SelectScreen Cell-based Pathway Profiling (GeneBLAzer bla reporter)", "design": "species or system Human", "conditions": "0.0158 μg/mL-0.5 μg/mL", "experimental": "as §1, §2, §3, §4"}, "ADBR1": {"test_system": "ADBR1", "assay": "SelectScreen Cell-based Pathway Profiling (GeneBLAzer bla reporter)", "design": "species or system Human", "conditions": "0.158 μg/mL-50 μg/mL", "experimental": "as §1, §2, §3, §4"}, "TNF-alpha/JNK": {"test_system": "TNF-alpha/JNK", "assay": "SelectScreen Cell-based Pathway Profiling (GeneBLAzer bla reporter)", "design": "species or system Human", "conditions": "0.5 μg/mL-50 μg/mL", "experimental": "as §1, §2, §3, §4"}, "CCR5": {"test_system": "CCR5", "assay": "SelectScreen Cell-based Pathway Profiling (GeneBLAzer bla reporter)", "design": "species or system Human", "conditions": "0.058 μg/mL-50 μg/mL", "experimental": "as §1, §2, §3, §4"}, "mechanistic biomarkers": {"test_system": "mechanistic biomarkers", "assay": "modulation of mechanistic biomarkers (summary)", "type": "cell-based", "from_the_text": "The effect of modulation of mechanistic biomarkers by recombinant lectin having the amino acid sequence of SEQ ID NO.2 is summarized as below: • increased levels of HGF, which binds to its receptor C-Met, and then acts on MAPK, • activated ATF-2 which is a tumor suppressor and acts via inducing apoptosis, • increased expression of c-kit, which is receptor for SCF, this acts downstream on MAPK, • increased the expression of JNK and inhibits p53, which activates AFT-2 resulting in apoptosis, • stimulated VEGF, VEGF-A and VEGFR2 expression, which activates Ras-Raf pathway, • inhibited expression of EGF, which binds to EGFR and exerts anticancer effect via Ras-Raf pathway or PKC, • stimulated Her-2, which activates Ras-Raf-MEK1-MAPK-ERK activation, • increased ERK and MEK-1 levels, which activated p90RSK and MMPs expression. ERK also acts via stat-3 and NF-KB, • stimulated GMCSF and IL-6 expression, which act via JAK-STAT pathway and activates NF-KB, • activated IL-4R expression, which connects to JAK-STAT pathway. IL-4R also acts via PI3K-Akt arm, • increased IL-8 levels, which acts via PI-3K-Akt-FOX3 arm. Akt also acts via Stat-3-NF-KB arm, where SEQ ID NO. 2 exerted an increase in Stat-3, • increased expression of Leptin, which binds to its receptor Leptin-R and acts on ERK pathway, • increased levels of cytokines (GMCSF, IL-6 and IL-8) may also interact with the immune system in tumor microenvironment to mount anticancer immunoprotective effect, • activated of TNF-α which connects to JNK pathway, • increased levels of endoglin-1 expression, which is a receptor for TGF-β. […] Binding to Tie-2 regulates PI3k pathway, • activation of Kallikrien-3 & Kallikrien-5 that acts as act a tumor suppressor, via induction of apoptosis, • activation of TRAIL & TRAILR2 causes apoptosis primarily in tumor cells, by binding to certain death receptors, • activation of Osteopontin (PON) which binds to receptors αVβ3 and CD44 and acts via Akt pathway, • inhibited Galectin-1 which either acts via Ras-Raf pathway or PI3k-Akt pathway."}}}
{"molecule": "B1", "values": [{"measurement": "% of cytotoxicity", "setting": "Glioma (C6); 2.5 μg/mL-100 μg/mL", "result": "18.8-48.3%"}, {"measurement": "IC50 Value", "setting": "Glioma (C6)", "result": ">100", "unit": "µg/mL"}, {"measurement": "effective inhibition", "setting": "PKC/Ca2+; 0.00158 μg/mL to 0.5 μg/mL", "result": "5% to 19%"}, {"measurement": "Effect (wrt control), inhibition", "setting": "PKC/Ca2+; 0.00158 μg/mL-0.158 μg/mL", "result": "5%-19% inhibition"}, {"measurement": "Effect (wrt control), inhibition", "setting": "PI3K/AKT/FOXO3", "result": "2%-73% inhibition"}, {"measurement": "Effect (wrt control), inhibition", "setting": "PI3K/AKT/FOXO3; listed as recombinant lectin", "result": "2% to 73%"}, {"measurement": "Effect (wrt control), inhibition", "setting": "MAPK/EGFR/Ras/Raf", "result": "2%-48% inhibition"}, {"measurement": "Effect (wrt control), inhibition", "setting": "MAPK/EGFR/Ras/Raf; listed as recombinant lectin", "result": "2% to 48%"}, {"measurement": "Effect (wrt control), inhibition", "setting": "IL-4/STAT6", "result": "16%-28% inhibition"}, {"measurement": "Effect (wrt control), inhibition", "setting": "IL-4/STAT6; listed as recombinant lectin", "result": "16% to 28%"}, {"measurement": "Effect (wrt control), inhibition", "setting": "ADBR1", "result": "26%-49% inhibition"}, {"measurement": "Effect (wrt control), inhibition", "setting": "ADBR1; listed as recombinant lectin", "result": "26% to 49%"}, {"measurement": "Effect (wrt control), inhibition", "setting": "TNF-alpha/JNK", "result": "12%-45% inhibition"}, {"measurement": "Effect (wrt control), inhibition", "setting": "TNF-alpha/JNK; listed as recombinant lectin", "result": "12% to 45%"}, {"measurement": "Effect (wrt control), inhibition", "setting": "CCR5", "result": "21%-70% inhibition"}, {"measurement": "Effect (wrt control), inhibition", "setting": "CCR5; listed as recombinant lectin", "result": "21%-70%"}, {"measurement": "ATF-2", "setting": "mechanistic biomarkers", "result": "activated"}, {"measurement": "Angiopoietin-1 & Angiopoietin-2", "setting": "mechanistic biomarkers", "result": "activation"}, {"measurement": "CD40L", "setting": "mechanistic biomarkers", "result": "inhibited"}, {"measurement": "ERK and MEK-1 levels", "setting": "mechanistic biomarkers", "result": "increased"}, {"measurement": "Fol-1 expression", "setting": "mechanistic biomarkers", "result": "increased"}, {"measurement": "GMCSF and IL-6 expression", "setting": "mechanistic biomarkers", "result": "stimulated"}, {"measurement": "Galectin-1", "setting": "mechanistic biomarkers", "result": "inhibited"}, {"measurement": "Galectin-3", "setting": "mechanistic biomarkers", "result": "inhibited"}, {"measurement": "Her-2", "setting": "mechanistic biomarkers", "result": "stimulated"}, {"measurement": "IL-4R expression", "setting": "mechanistic biomarkers", "result": "activated"}, {"measurement": "IL-8 levels", "setting": "mechanistic biomarkers", "result": "increased"}, {"measurement": "Kallikrien-3 & Kallikrien-5", "setting": "mechanistic biomarkers", "result": "activation"}, {"measurement": "Osteopontin (PON)", "setting": "mechanistic biomarkers", "result": "activation"}, {"measurement": "PDGF-BB", "setting": "mechanistic biomarkers", "result": "activation"}, {"measurement": "Stat-3", "setting": "mechanistic biomarkers", "result": "increase"}, {"measurement": "TGF-alpha", "setting": "mechanistic biomarkers", "result": "activation"}, {"measurement": "TNF-α", "setting": "mechanistic biomarkers", "result": "activated"}, {"measurement": "TRAIL & TRAILR2", "setting": "mechanistic biomarkers", "result": "activation"}, {"measurement": "VEGF, VEGF-A and VEGFR2 expression", "setting": "mechanistic biomarkers", "result": "stimulated"}, {"measurement": "expression of EGF", "setting": "mechanistic biomarkers", "result": "inhibited"}, {"measurement": "expression of JNK", "setting": "mechanistic biomarkers", "result": "increased"}, {"measurement": "expression of Leptin", "setting": "mechanistic biomarkers", "result": "increased"}, {"measurement": "expression of c-kit", "setting": "mechanistic biomarkers", "result": "increased"}, {"measurement": "levels of HGF", "setting": "mechanistic biomarkers", "result": "increased"}, {"measurement": "levels of endoglin-1 expression", "setting": "mechanistic biomarkers", "result": "increased"}, {"measurement": "p53", "setting": "mechanistic biomarkers", "result": "inhibits"}]}
